{"source": "the DeepSol protein solubility set"}
{"assay": "soluble on expression in E. coli; label from the status in PepcDB or PDB records"}
{"sequence": "MFEAEIDCNIPGALWCGELYVLEQDVVFPDLLRIDRFCTSKSKKMFRFDVYPGSDFPTVDLELTYKFNHNCSADGETYCVKPKWSKKVNGRVGQSVGFDIDARPHGKPSRCKPPFYF", "soluble on expression in E. coli": "not soluble"}
{"sequence": "MSLRNKLQQAKRIVIKVGTSSLIYPNGNINLKAIDQLAFTLSDLSNQGKEIILVSSGAIGVGLNKLNLSVRPTTIPEQQAVAAVGQAELMNIYNQRFSTYSQQMAQVLLTRDVIEYPESRNNVTNTFEQLLKMNIIPIVNENDTVAIEELDHLTKFGDNDQLSAIVCQIVQADLLVMLSDIDGFFSDNPTVNKEATLFSEINEINEDLFQLAGGKGSRFGTGGMSSKLKAAERVLANQQAMILANGKQPKIIFEILEGKDIGTLFIKGGHESDEGHHHHHH", "soluble on expression in E. coli": "soluble"}
{"sequence": "MAHHHHHHMAGSIRYFIDPRGALSPCAPAESSTPRAGGTKVPRTAEAKSSPNSPPELSSAVPLDGLCRAYEAADGRSGSAFLQVYSVGAHGLLSPEAKAVITGCTMAALRSRLSHLLGLLPHERLNGADSALGMSAVAVLNRYCRATAALPPPSPSAMQPRCGTDTDGGGMRGRGWVVTWALELVLCVAASRIVAGPPLATACPPLCVSDCGDVIMASLHFGLGVRLQRDAVAHHDERTIASSTPLTSAAERCPRYAALSVQLTECTPASSHPLDVRCAVDVTRVIYVNHIRSAQAHAEDGTDAFQRLARCEGGVSDPLSVATARDAWAEALQSYQASAIASQGGVLFVLTHDLSVQSGPAALLPLTVREERSRSHAAEMSHDVAFPPALRDHVLASVRVRSAPVYFNHILLCQAWSSDDVVAEAHARHWAEKLANDGALAPARVAVEWRASLLVSRAKGGAAVTSDAGGSQTLAPTPLQWVLYTARRQLVVAVANRSQVVLTGRRRGLDRTAAEATTKAAQFSPSALRALAEQCVKALPVARGLLGWHCPWPVPSCLQNTDTCTAIPSAAAVEEVLWTLRMLGKLRWRAAQLYEAAGDSAEQHRQLRALRADVQRWSSRRRARTLAADGTTLACEATAWTPTVEDVVCHVDDGDWGALTKELSSMLPPA", "soluble on expression in E. coli": "not soluble"}
{"sequence": "MSLPLVTLNSVRFAGMATCVPKRVVSNLTDCKPQIRPERERLVRNIGIELRRLTQEWQCFSDLAFDAASKLIESLEWKLEEIDALIVVTQSPDYLAPATAIILQDRLGLPHTTLAFDVNLGCSGYPFGLHLLGSLISAGGIKKGLVLVGDSGAQLNDPIFSDAGTATAMEFCADAPPMYFDLNSDGSGHKAIILPVGGHREPVGIQHLVPFRENENDHWHRAIDLQLDGTAVLSFSTQRVPPAVEKLLEYANASKDEVDYFIFHQANRMINETIRKKLALPVEKVPSTLRDFGNTSGASLPVTMTARINKQLEEGSKRLVLSGFGIGLSWGTCLVDIQGAKFPDLIESEGHHHHHH", "soluble on expression in E. coli": "soluble"}
{"sequence": "MAHHHHHHMTTLYDELYLLFDEYIVRNCKQPNTYESLFCKKEFVQFAKLHGTSVVVTSPKKEIKNKDEIIDELIYAFKLFAKYTSMCDFFSKNEEVDDINTIYLKFLLIPYILGVLCYETISMEIRSDRLKEAKLYFGEFINVVNVYKIAPVEDYLLDEGGEVNQAMNRRNIKVKRAKDEKKLQDFYDDMIKMNVKKGSSQNYNHLCFADHMEEEQIREIYLSLIKCKCLQTLNMMDLIDTEIEVLEMRNRQQVQDKQHQNGKPTQGTKDTHDGQPPHQNKHPKDGIKKPWLFTIKKNMPLADMTQMRNYYRDLVFTPAHNLPTISLEECAKIEMEYALKGEGMAPRSEEERRGNPKSGTIKGAAQNGTDDEEDYEKSSKEESEKELMDREWDDWKDMHQKGIGNKNRNVA", "soluble on expression in E. coli": "not soluble"}
{"sequence": "MIMVNNDAVVRNVYHKYFHPKEALVSSGVLNREISRAAGKAVPGIIDEESSGNNAQ", "soluble on expression in E. coli": "soluble"}
{"sequence": "MRYTILTKGDSKSNALKHKMINHMKDFQMVEDSENPEIVISVGGDGTLLQAFHQYSHMLSKVAFVGIHTGHLGFYADWLPHEVEKLIIEINNSEFQVIEYPLLELIVRYNDNGYETRYLALNEATMKTENGSTLVVDVNIRGKHFERFRGDGLCISTPSGSTAYNKALGGALIHPSLEAMQIAEIASINNRVFRTVGSPLVLPKHHTCLITPVNHDTIRTTIDHVSIKHKNVNAIQYRVANEKVRFARFRPFPFWKRVHDSFISSDDERMAGDPLEHHHHHH", "soluble on expression in E. coli": "soluble"}
{"sequence": "MSQPCPCGSADEYSLCCGRIVSGERVAPDPSHLMRSRYCAFVMKDADYLIKSWHPTCNAAAFRDDIIAGFANTRWLGLTIFEHTWSEAENTGYVSFIARFSEQGKNGAIIERSRFIKENGQWYYIDGTRPQLGRNDPCPCGSGKKFKKCCGQ", "soluble on expression in E. coli": "not soluble"}
{"sequence": "MDINQNYREAVKTIKEAILRSQYRAATSVNKEQLSLYYGIGRYVSKNSRIGFWGKGAIEQISSLLQKELPGLRGFSTSNIKNMRVFYEEWEPVLNRQPLAGDLVLDEKLLLSVIRQPLADEFNWSDFFSIGFSHHTEIISKAKTLEARLFYIHECAIRYWSKYTLRDYLKADLYSHRGTLPNNFAQTLPDTKQALKAVCSFKDEYLLDFINVEELDEQEEDLDEKIVEKSIVANVKKFIMTFGQDFSFIGNQYRVEVAGEEMFIDLLFFNRELNSLVAVELKSGKFRSSYLGQLNTYLSALDSYVRKPHENPSIGIILCREMNQTFVEFAVRDYNKPMGVATYRTSKDMPERLRNALPDIEELRKLL", "soluble on expression in E. coli": "not soluble"}
{"sequence": "MGSDKIHHHHHHMVVESGFTAAQLPWLEGPRQAFLAQLTRQKMPHAQLVGIDSAYGGELLSVFMARAAMCLQPTPAGACGFCKSCQLFDAGNHPDFYHIAADGNQIKVDQIRELCTRLTATAQQSGMRVAIIHHSERLNSAAANALLKTLEEPGKDTLLILQSDTPARLMATVGSRCQRIPFVVPSREIIKNWLAQQCDIKEDVTWCLSVVGGPLQLAESLQSEGGQQSRYQSLLQFRKDWAQSLSSGHLCASLLTISEQQIIDVLKVLYLLIRQVLLKNSHQDAFIHAQLGNLAAKIMGMCHSLSTMPSVNYLALCQSYVLEYREITNK", "soluble on expression in E. coli": "not soluble"}
{"sequence": "NKNAFLIVRGNLTYAHSEYLKYEDNTYDKEWWKYKIGYSPNQKWGYIAEGLFIDDAEVANSPVQFGDYKAGDIKYRDMNGDGVINSLDQVPIGHPTSPEINYGFGSTFSYKGFDINFQFHGSAQSSFWIDYDKMSPFFKDSKMSQKTNNQLVKFIANSYWSESNRNRYATWPRLSTTSVANNKELSTWFMRDGSFLRLKLVELGYTVPQKIVSKWGMSNLRLYMSSTNLFVLSKFKDWDVELAGNGLNYPLQRVFNIGVNVSF", "soluble on expression in E. coli": "not soluble"}
{"sequence": "MLRTQAARLICNSRVITAKRTFALATRAAAYSRPAARFVKPMITTRGLKQINFGGTVETVYERADWPREKLLDYFKNDTFALIGYGSQGYGQGLNLRDNGLNVIIGVRKDGASWKAAIEDGWVPGKNLFTVEDAIKRGSYVMNLLSDAAQSETWPAIKPLLTKGKTLYFSHGFSPVFKDLTHVEPPKDLDVILVAPKGSGRTVRSLFKEGRGINSSYAVWNDVTGKAHEKAQALAVAIGSGYVYQTTFEREVNSDLYGERGCLMGGIHGMFLAQYDVLRENGHSPSEAFNETVEEATQSLYPLIGKYGMDYMYDACSTTARRGALDWYPIFKNALKPVFQDLYESTKNGTETKRSLEFNSQPDYREKLEKELDTIRNMEIWKVGKEVRKLRPENQ", "soluble on expression in E. coli": "not soluble"}
{"sequence": "MGSDKIHHHHHHMLMSVTTENAPVQGQTTLQENSAGEGVYASLFEKINLTPASCLGDINDFLDDAALSEAPAAERLTAAMQVFMERIRQSGQRVEKLDKTLIDHHIAELDFQISRQLDAVMHHQEFQQVESLWRGLKQLVDNTDYRQNVKTEILDVAKDDLRQDFEDAPELIQSGLYWHTYTAEYDTPGGEPIGSVISAYEFDASPQDVALLRNISRVSAAAHMPFIGAVGPAFFLKETMEEVAAIKDIGNYFDRAEYIRWKAFRETDDARYIGLVMPRVLGRLPYGPDTVPVRSFNYVEQVKGPDHEKYLWTSAAFSFASNMVKSFVNNGWCVQIRGPQAGGAVKDLPIHLYDLGTGNQVKIPSEVMIPETREFEFASLGFIPLSYYKNRDYACFFSANSAQKPALYDTADATANSRINARLPYIFLLSRIAHYLKMIQRENIGTTKDRRLLELELNTWVRSLVTEMTDPGDELQASHPLRDASVVVEDIEDNPGFFRVKLYAVPHFQVEGMDVNLSLVSQMPKAKA", "soluble on expression in E. coli": "not soluble"}
{"sequence": "PCFALTGPEAGSDAGGIPDQGVVCYGMYDGEEVLGVRVSWNKRYITLAPVATVLGLAFKLQDPDGLLGDKKDVGITCALIPADHDGVEIGERHDPLGSAFMNGPTRGEDVFIPMDWLIGG", "soluble on expression in E. coli": "not soluble"}
{"sequence": "MGSDKIHHHHHHMERLCEQVRKVRRWLIDQPFDGILLSEQKNIAWLTGARAYVNLATERSIVFFLITESETVMYCSNIEKERLLAEEIGDTVGEIHVFPWYDPLLAESITQEQSKIGKVVLDREVESAFKAVRSALSPSQVAGYRQLGKLSAAAVEETALGLQRGETELEIAGRLANAAIKRGIEPVVNLVAVDDRVSAYRHPLPTDKRLDRYVMIVLSGRRNGQYISLTRLVHFGVIPIDLKKKHAAVCTIDSRLMHHTRVGQSMGDLFKEMKAAYATVGYLHEWKNHHQGGLTGYVGRERLLQPDAQELIQANEVYAWNPSITGTKSEDTILVTESGPEILTLGKKFPLMTVTVAGCTYERPDILGRNDG", "soluble on expression in E. coli": "not soluble"}
{"sequence": "MLSRLTSRNVLLARNVATAATQERQKIKVDNPVVDLDGDEMTRIIWKEIKNKLILPYLDLDIKYYDLGLEYRDETNDQVTIDAAHAILEHSVGIKCATITPDEARIKEFNLKKMWLSPNGTIRNILGGTVFREPILCKNIPRLVPGWTQPITIGRHAFGDQYKCTDLVIPSGSTLQLLVNKPDGSKDVHNVYDFKKSGGVGLAMYNTDESIKGFAHSCFQYALMKQWPLYLSTKNTILKKYDGRFKDIFQDIYEKKYEADFKNNKIWYEHRLIDDQVAQALKSSGGFVWACKNYDGDVQSDIVAQGYGSLGLMSSVLMCPDGKTIEAEAAHGTVTRHYREHQKGNSTSTNPIASIFAWTRGLHHRGVLDNNEALKTFSLTLEKACIDTVEEGKMTKDLSICIHGTKKGTEKGAYLITEDFLSAIDTKMAELMRQD", "soluble on expression in E. coli": "not soluble"}
{"sequence": "MGHHHHHHSHMGNCQAVNAAVLVLQHPGGIIDRYYSSVSVTEVMAMYPGHYVSLIIPLSEEEEKNIPATEKGDDKKQRKAVRFTRVQLLRPTENLVLGHAYRLITSQEVMKVLREKKSAKTKKHQIEKTTTAKKFSDKKVPEKKQGKQFRVIRNSTSLLKSKTWRPSLQSISEATS", "soluble on expression in E. coli": "soluble"}
{"sequence": "GPGSMSVTIYGIKNCDTMKKARIWLEDHGIDYTFHDYKKEGLDAETLDRFLKTVPWEQLLNRAGTTFRKLPEDVRSNVDAASARELMLAQPSMVKRPVLERDGKLMVGFKPAQYEAYFKL", "soluble on expression in E. coli": "soluble"}
{"sequence": "MRSSQAIDFERIPEMEDKWRKEITAMTVTLQDKRKAIQNDEILRGVHPKSHGCLDAEFTVNRDIAPQFQVGLFAQPGKCFRARIRYSNADVLKRADLEKGQDATGARFLNHGSRGMAIKVLDVGAPVLLEDGCARNQDFLMVNTPEFAFRNVRDYLRLTKALCASADGADPLLFFLPGELLKRGMMDMSGSLLPAPAGEPPQNAGLRALFEANRAFFDDFDAEDMQGVISAAGVVGKIQSTPVRNPLFAPYFSAASFRFGKDRVMRFSVVPLQSEEMAADMASDAFEDFSDDYLSQALALSVATNEPIKLSFRIQIAHEEDIVNDIDGMIENAAKTWDEDQFSHTEVAQITINPPCPSAELVDTCKPLLFTPWHAVVDFEPLGGINRLRKPVYSTSAAFRRSVLEHHHHHH", "soluble on expression in E. coli": "not soluble"}
{"sequence": "GGGSCYFIPNEGVPGDSTRKCMDLKGNKHPINSEWQTDNCETCTCYETEISCCTLVSTPVGYDKDNCQRIFKKEDCKYIVVEKKDPKKTCSVSEWII", "soluble on expression in E. coli": "soluble"}
{"sequence": "MAHTRSLQMLKAHSTRSALRQPQKKETGTNGNDPSVAPKNAQADSGKDERRGSQAMGWSCFGGCIKDEIFSVFGIGRKIIGRV", "soluble on expression in E. coli": "not soluble"}
